Test results as given in paper PMC5609118, “Purification and Characterization of Latent Polyphenol Oxidase from Apricot (Prunus armeniaca L.)” (Journal of Agricultural and Food Chemistry, 2017).

Key:
[1] = target: T1, L-PaPPO (latent polyphenol oxidase from apricot) (Prunus armeniaca, UniProt O81103); experiment: inhibition of catechol oxidation, absorbance; type: biochemical; details: for activity at 1000 µM: read-out: 1 mM
T1 construct: gene PPO; native, purified from fruit; latent mature form Asp102-Ser597 (496 residues), transit peptide removed; 63 kDa by SDS-PAGE; no tag
Source text: inhibition of catechol oxidation, absorbance on L-PaPPO (latent polyphenol oxidase from apricot)

[2] = target: T2, A-PaPPO (activated polyphenol oxidase from apricot) (Prunus armeniaca, UniProt O81103); experiment: in-gel activity staining, partially denaturing SDS-PAGE; type: biochemical; details: 0.2 M catechol, 50 mM sodium citrate pH 6.5, 25 °C
T2 construct: gene PPO; native, from fruit; C-terminal domain lost during storage at 4 °C; 38 kDa by SDS-PAGE
T2 sequence (O81103 102-429): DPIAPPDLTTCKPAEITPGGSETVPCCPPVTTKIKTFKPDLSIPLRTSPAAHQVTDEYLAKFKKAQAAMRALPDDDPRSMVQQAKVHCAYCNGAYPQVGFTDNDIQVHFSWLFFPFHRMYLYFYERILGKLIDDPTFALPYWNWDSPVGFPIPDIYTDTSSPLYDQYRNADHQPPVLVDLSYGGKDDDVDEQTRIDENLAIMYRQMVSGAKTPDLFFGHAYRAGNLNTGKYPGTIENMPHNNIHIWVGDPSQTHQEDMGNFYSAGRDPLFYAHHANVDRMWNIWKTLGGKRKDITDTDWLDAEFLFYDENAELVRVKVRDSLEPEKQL

[3] = target: T1, L-PaPPO (latent polyphenol oxidase from apricot); experiment: quinone formation, absorbance, microplate reader; nonlinear regression; type: biochemical; details: 50 mM sodium citrate pH 4.5, 25 °C, no SDS; triphenol substrate; latent enzyme activated in the assay
Source text: (§1) quinone formation, absorbance, microplate reader; nonlinear regression on L-PaPPO (latent polyphenol oxidase from apricot)

purified protein = substrate: O=C(/C=C/c1ccc(O)c(O)c1)O[C@@H]1C[C@](O)(C(=O)O)C[C@@H](O)[C@H]1O; experiment: purified protein; details: 50 mM sodium citrate pH 4.5, 25 °C, no SDS, diphenolase, latent enzyme activated in the assay
[4] = substrate: Cc1ccc(O)c(O)c1; experiment: quinone formation, absorbance, microplate reader; nonlinear regression; type: biochemical, Prunus armeniaca; details: 50 mM sodium citrate pH 4.5, 25 °C, no SDS, diphenolase, latent enzyme activated in the assay
Source text: as §1

[5] = substrate: Oc1ccccc1O; experiment: as above; type: biochemical, Prunus armeniaca; details: 50 mM sodium citrate pH 4.5, 25 °C, no SDS, diphenolase, latent enzyme activated in the assay
Source text: as §1

For O=c1cc(CO)occ1O [kojic acid], the activity at 1000 µM [1] was 28 ± 1.1%.

Molecule O=C(O)CCC(=O)O [succinic acid] has an activity at 10000 µM ([1]; read-out: 10 mM) of 89.1 ± 0.53%.

In the case of Oc1ccccc1O [catechol], the “in-gel activity staining, partially denaturing SDS-PAGE” value [2] is reported as “single band was detected by in-gel enzymatic activity staining with catechol as substrate”.

CCCCCCc1ccc(O)cc1O [4-hexylresorcinol] gave an activity at 100 µM ([1]; read-out: 0.1 mM) of 34 ± 1.4%.

Oc1cccc(O)c1O [pyrogallol] showed a Km [3] of 11 ± 1.5 mM.

With O=C(O)c1ccccc1 [benzoic acid] the activity at 1000 µM [1] was 41 ± 1.2%.

B1: L-PaPPO (latent polyphenol oxidase from apricot) (Prunus armeniaca) (protein)
chain: DPIAPPDLTTCKPAEITPGGSETVPCCPPVTTKIKTFKPDLSIPLRTSPAAHQVTDEYLAKFKKAQAAMRALPDDDPRSMVQQAKVHCAYCNGAYPQVGFTDNDIQVHFSWLFFPFHRMYLYFYERILGKLIDDPTFALPYWNWDSPVGFPIPDIYTDTSSPLYDQYRNADHQPPVLVDLSYGGKDDDVDEQTRIDENLAIMYRQMVSGAKTPDLFFGHAYRAGNLNTGKYPGTIENMPHNNIHIWVGDPSQTHQEDMGNFYSAGRDPLFYAHHANVDRMWNIWKTLGGKRKDITDTDWLDAEFLFYDENAELVRVKVRDSLEPEKQLRYNYEPVSLPWLFTKPTARKTKNKTKAKVAATQLTSKFPATLVEVTTVEVARPKPRKRSKKEKVDEEELLIIKDIEFEGTEAVKFDVFINDDAESLSRRDKSEFAGSFVHVPQGKTTKAKTKTNLKLGITDLLEDLGAEDDSSVLVTLVPRVSNSPITIGGFKIEYSS
notes: native, purified from fruit; latent mature form Asp102-Ser597 (496 residues), transit peptide removed; 63 kDa by SDS-PAGE; no tag
Molecule B1 has a Km (purified protein) of 2.7 ± 0.16 mM, a kcat (purified protein) of 1400 s⁻¹ and a kcat/Km (purified protein) of 500000 M⁻¹ s⁻¹. For the same molecule, the Km [4] was 2.0 ± 0.26 mM, the kcat [4] was 700 ± 110 s⁻¹ and the kcat/Km [4] was 340000 ± 70000 M⁻¹ s⁻¹. The Km [5] was 5.3 ± 0.60 mM, the kcat [5] was 210 ± 30 s⁻¹ and the kcat/Km [5] was 40000 ± 10000 M⁻¹ s⁻¹.
